# Results taken from the nanobody polyreactivity screen of Harvey et al. (2022).
# Experiment: yeast display, Sf9 membrane polyspecificity reagent, FACS + sequencing; frameworks hold sequencing errors
# How it was run: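 Using colony PCR, genes from sorted yeast display clones were amplified, then sequenced on MiSeq at 2 × 250 and filtered by CDR length. The clones had been stained with 10% biotinylated, detergent-solubilized Sf9 membrane reagent for 1 hour at 4 °C and sorted by FACS into low and high (top ~1%) gates on anti-HA and streptavidin fluorescence. Polyreactivity labels come from the gate of origin.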
row,Sequence,polyreactivity (PSR sort gate)
1,QVQLVESGGGLVQAGGSLRLSCAASGYIFYNYAMGWYRQAPGKERELVAAISRRGGSTYYADSVKGRFTISRDNAKNTVYLQMNSLKPEDTAVYYCAKTPYAHPNYYTDYYWGQGTQVTVSS,high polyreactivity
2,QVQLVESGGGLVQAGGSLRLSCAASGYIIDNNSMAWYRQAPGKERELVASNTNSAGSTSYADSVKGRFTISRDNAKNTVYLQMNSLKPEDTAVYYCAAKRYHYFFPYSRRGAYGYWGQGTQVTVSS,high polyreactivity
3,QVQLVESGGGLVQAGGSLRLSCAASGYILPKNTMGWYRQAPGKERELVAAISWSGGSTFYADSVKGRFTISRDNAKNTVYLQMNSLKPEDTAVYYCAADRYWSWYYRYDYWGQGTQVTVSS,low polyreactivity
4,QVQLVESGGGLVQAGGSLRLSCAASGYILPKNTMGWYRQAPGKERESVAVITYSGGSTYYADSVKGRFTISRDNAKNTVYLQMNSLKPEDTAVYYCAADKWYYVRYPTDAYSKFDYWGQGTQVTVSS,low polyreactivity
5,QVQLVESGGGLVQAGGSLRLSCAASGYILRSNAMGWYRQAPGKEREFVAAITYSGGSTYYADSEKGRFTISLDNAMNSVYLQMNSLKPEDTAVYYCAKTTRYQRGYGYWGQGTQVTVSS,low polyreactivity
6,QVQLVESGGGLVQAGGSLRLSCAASGYILWNAMGWYRQAPGKERELVAAIRFRGGSTSYADSVKGRFTISRDNAKNTVYLQMNSLKPEDTAVYYCNARWWVIRPYQRHDYWGQGTQVTVSS,low polyreactivity
7,QVQLVESGGGLVQAGGSLRLSCAASGYISSYNPMGWSRQAPGKERELVASITRGGSTYYADSVKGRFTISRDNAKNTVYLQMNSLKPEDTAVYYCAADTLRQYDYEYWGQGTQVTVSS,high polyreactivity
8,QVQLVESGGGLVQAGGSLRLSCAASGYIWCYAMGWDRQAPGKEWELVAAISWGGGSTYYADSVKGRFTISRDNAKNTVYLQMNSLKREDTAVYYCAAVDAVGPTSHAMYYWGLGTQVTVSS,low polyreactivity
9,QVQLVESGGGLVQAGGSLRLSCAASGYNFFSYAKGWYRQPPGKERELVAAISRGGRTYYADSVKGRFTISRDNAKNTVYLQMKILKPEDTAVYYCNAVSTPGKYGYWGQGTQVTVSS,high polyreactivity
10,QVQLVESGGGLVQAGGSLRLSCAASGYSFYYNAMGWYRQAPGKERELVAAISYTGGSTYYADSVKGRFTISRDNAKNTVYLQMNSLKPEDTAVYYCAAEYYTYVSDNYQHYGYWGQGTQVTVSS,low polyreactivity
11,QVQLVESGGGLVQAGGSLRLSCAASGYTCDANAMGWYRQATGKERELVASISSISDSTDYADAVKGRITISRDNATNTVYLQMKILKPEDTAVYYCARSDVKPGRQERDYWGQGTQVTVSS,low polyreactivity
12,QVQLVESGGGLVQAGGSLRLSCAASGYTFAGYAMGWYRQAPGKERELVAAISRNGGTTYYADSVKGRFTISRDNAKNTVYLQMNSLKPEDTADYYCNKRGWYSVYRRDYWGQGTQVTVSS,high polyreactivity
13,QVQLVESGGGLVQAGGSLRLSCAASGYTFANNAMGWYRQAPGKERELVAVITWSGDSTYYADSVKGRFTISRDNAKNTVYLQMNSQKAEDTAVYYCAREFSDGLSGKFDYWGQGTQLTVSS,low polyreactivity
14,QVQLVESGGGLVQAGGSLRLSCAASGYTFAPNTMGWYRQAPGKERELVATITVSGGITYADSVKGRFTISRDNAKNTVYLQMNSLKPEDTAVYYCAARTPGWYLPRDYWGQGTQVTVSS,low polyreactivity
15,QVQLVESGGGLVQAGGSLRLSCAASGYTFATYTMGWYRQAPGKERELVAAITGGGGSTSYADSVKGRFTISRDNAKNTVYLQMNSLKLEDTAVYYCNAGISVDYSLEKYDYWGQGTQVTVSS,low polyreactivity
16,QVQLVESGGGLVQAGGSLRLSCAASGYTFAWYAMGWYRQAPGKERELVAAITVSGGSTYYADSVKGRFTISRDNAKNTVYVQMNSLKPEDTAVYYCAADYAPLDLYQDSTVYSSGDYWGQGTQVTVSS,low polyreactivity
17,QVQLVESGGGLVQAGGSLRLSCAASGYTFAWYTMGWYRQAPGKERELVAAISASGVRTYYADSVKGRFTISRDNAKNTVYLQMNSLKPQDTAVYYCNRVYSTSRITQYEFDYWGQGTQVTVSS,low polyreactivity
